Source: patent US20140227251A1 (AbbVie / Abbott, published 2014)

Target: T1, Human TNF-α (R&D Systems) (human, UniProt P01375 77-233, labeled with Alexa Fluor 647 in the FACS assays)
T1 construct: also called Alexa Fluor 647-labeled TNF-α; TNF-α-AF647
Test: surface plasmon resonance (Biacore)

T1 sequence (P01375 77-233 limits assumed): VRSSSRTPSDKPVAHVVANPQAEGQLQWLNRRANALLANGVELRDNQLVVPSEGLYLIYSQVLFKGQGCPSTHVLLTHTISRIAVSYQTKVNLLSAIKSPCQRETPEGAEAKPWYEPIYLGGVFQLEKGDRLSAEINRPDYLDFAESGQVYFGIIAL

| Binder | binding result |
| --- | --- |
| D2E7 combination variant Y32K/SS-R30I (antibody, V domains shown, VL-SS backbone = G28S and A34S in CDR-L1 (Kabat); Expressed and purified variant antibody; also called Y2K in CDR-H1 with G5S, R7I and A11S in CDR-L1) VH: not shown VL: DIQMTQSPSSLSASVGDRVTITCRASQSIINYLSWYQQKPGKAPKLLIYAASTLQSGVPSRFSGSGSGTDFTLTISSLQPEDVATYYCQRYNRAPYTFGQGTKVEIK | binds |
| D2E7 combination variant Y32K/SS-R30T (antibody, V domains shown, VL-SS backbone = G28S and A34S in CDR-L1 (Kabat); Expressed and purified variant antibody; also called Y2K in CDR-H1 with G5S, R7T and A11S in CDR-L1) VH: not shown VL: DIQMTQSPSSLSASVGDRVTITCRASQSITNYLSWYQQKPGKAPKLLIYAASTLQSGVPSRFSGSGSGTDFTLTISSLQPEDVATYYCQRYNRAPYTFGQGTKVEIK | binds |
